Reference: the Immune Epitope Database (IEDB)

Columns and labels:
[1] = target: HLA-B*07:02; experiment: IEDB peptide-MHC binding, purified MHC/direct/fluorescence; filed as Kd, often an IC50 or EC50 that approximates it; ≥ and ≤ were set here for values at or beyond the usual limits of such assays
[2] = target: HLA-A*30:01; experiment: IEDB peptide-MHC binding, purified MHC/competitive/radioactivity; filed as Kd, often an IC50 or EC50 that approximates it; ≥ and ≤ were set here for values at or beyond the usual limits of such assays
[3] = target: HLA-A*24:02; experiment: as above
[4] = target: HLA-A*02:01; experiment: IEDB peptide-MHC binding, purified MHC/competitive/fluorescence; ≥ and ≤ were set here for values at or beyond the usual limits of such assays
[5] = target: HLA-A*02:01; experiment: IEDB peptide-MHC binding, purified MHC/direct/fluorescence; filed as Kd, often an IC50 or EC50 that approximates it; ≥ and ≤ were set here for values at or beyond the usual limits of such assays
[6] = target: HLA-B*53:01; experiment: IEDB peptide-MHC binding, purified MHC/competitive/radioactivity; filed as Kd, often an IC50 or EC50 that approximates it; ≥ and ≤ were set here for values at or beyond the usual limits of such assays
[7] = target: HLA-A*30:02; experiment: as above
[8] = target: HLA-A*69:01; experiment: IEDB peptide-MHC binding, purified MHC/direct/fluorescence; filed as Kd, often an IC50 or EC50 that approximates it; ≥ and ≤ were set here for values at or beyond the usual limits of such assays
[9] = target: HLA-A*01:01; experiment: as above
[10] = target: HLA-A*11:01; experiment: as above
[11] = target: HLA-B*40:01; experiment: as above
[12] = target: HLA-B*51:01; experiment: IEDB peptide-MHC binding, purified MHC/competitive/radioactivity; filed as Kd, often an IC50 or EC50 that approximates it; ≥ and ≤ were set here for values at or beyond the usual limits of such assays
[13] = target: HLA-A*02:06; experiment: as above
[14] = target: HLA-A*03:01; experiment: IEDB peptide-MHC binding, purified MHC/direct/fluorescence; filed as Kd, often an IC50 or EC50 that approximates it; ≥ and ≤ were set here for values at or beyond the usual limits of such assays
[15] = target: HLA-B*15:01; experiment: as above
[16] = target: HLA-B*58:01; experiment: as above; settings: source organism: Pseudomonas aeruginosa
[17] = target: HLA-A*02:01; experiment: IEDB peptide-MHC binding, purified MHC/competitive/fluorescence; filed as Kd, often an IC50 or EC50 that approximates it; ≥ and ≤ were set here for values at or beyond the usual limits of such assays
[18] = target: HLA-A*02:03; experiment: IEDB peptide-MHC binding, purified MHC/competitive/radioactivity; filed as Kd, often an IC50 or EC50 that approximates it; ≥ and ≤ were set here for values at or beyond the usual limits of such assays
[19] = target: HLA-A*02:02; experiment: as above
[20] = source organism: Dengue virus 2 Jamaica/1409/1983
[21] = source organism: Dengue virus 1 Brazil/97-11/1997
[22] = source organism: Human immunodeficiency virus 1
[23] = source organism: Dengue virus 4 Philippines/H241/1956
[24] = source organism: Zaire ebolavirus
[25] = source organism: Dengue virus 3 Martinique/1243/1999
[26] = source organism: Vaccinia virus Copenhagen
[27] = source organism: Burkholderia pseudomallei
[28] = source organism: Campylobacter jejuni RM1221
[29] = source organism: Sudan ebolavirus
[30] = source organism: Orthomarburgvirus marburgense
[31] = source organism: West Nile virus
[32] = source organism: Vibrio vulnificus
[33] = source organism: Pseudomonas aeruginosa
[34] = source organism: Vaccinia virus WR
[35] = source organism: Francisella tularensis subsp. holarctica LVS
[36] = source organism: Mammarenavirus juninense
[37] = source organism: Dengue virus 3 Singapore/8120/1995

With AARHKHQVM the Kd ([1]; source organism: Danio rerio) was 64.8 nM.

For AFKVRPTFA, the Kd [2, 20] was 52.1 nM.

For AFPQSNAVI, the Kd [3, 21] was 2900 nM.

Sequence ALLEDPVGT has an IC50 ([4]; source organism: Human alphaherpesvirus 1 strain 17) of 28 nM.

ATPQDLNTM gave a Kd [5, 22] of no less than 28800 nM and a Kd [1, 22] of 11200 nM.

Sequence AVPSHWVPTS has a Kd [2, 20] of 15000 nM.

With CAIILGGLTW the Kd [6, 23] was 549 nM.

CLEKVQRQI was tested, and the IC50 [4, 24] was 21900 nM.

CNLTSTWVTY showed a Kd [7, 25] of no less than 68900 nM.

CSRLQTCIK gave a Kd [2, 26] of 44 nM.

DAAVVFPPV showed a Kd [8, 27] of 0.4 nM and a Kd [5, 27] of no less than 20000 nM.

In the case of DSDGSFFLY, the Kd ([8]; source organism: Homo sapiens) is reported as no less than 25100 nM, the Kd ([9]; source organism: Homo sapiens) is reported as 25 nM and the Kd ([10]; source organism: Homo sapiens) is reported as no less than 20600 nM.

EEFCDMLRL was tested, and the Kd ([11]; source organism: Mammarenavirus lassaense) was 255 nM.

EEFFCVHGM was tested, and the Kd ([11]; source organism: Mycobacterium tuberculosis) was 167 nM.

Work on FGCKPLTMFL yielded a Kd [12, 21] of no less than 35100 nM.

Sequence FKLTYQNKVV has a Kd [12, 20] of no less than 60000 nM.

FQESADSFL gave an IC50 [4, 24] of 14000 nM.

FSLGILCVSI showed a Kd [13, 21] of 3.63 nM and a Kd [12, 21] of no less than 39500 nM.

FVEGLSGATW showed a Kd [6, 21] of 14.4 nM.

In the case of GCGRGGWSYY, the Kd [7, 25] is reported as 9.43 nM.

Sequence GIYHDICEI has a Kd [8, 28] of no less than 20000 nM and a Kd [5, 28] of 162 nM.

With GLNLEGSGV the IC50 [4, 29] was 3860 nM.

GLYPQLSAI showed a Kd [8, 30] of 3860 nM and a Kd [5, 30] of 123 nM.

In the case of GVNKQTAMK, the Kd [10, 31] is reported as 20.3 nM and the Kd [14, 31] is reported as 600 nM.

For GYHTQTAGPW, the Kd [3, 20] was 3250 nM.

HLAGFIHAC gave a Kd [5, 32] of 21.5 nM and a Kd [15, 32] of 2280 nM.

Work on HLALTCILK yielded a Kd ([14]; source organism: Salmonella enterica subsp. enterica serovar Typhi) of 123 nM.

HLHQQLSNT showed an IC50 [4, 29] of 15000 nM.

Work on ILGRYLPEF yielded a Kd [8, 33] of 18100 nM, a Kd [5, 33] of 4130 nM and a Kd [16] of 146 nM. For the same sequence, the Kd [15, 33] was 150 nM.

With ILLSCIHTT the Kd [17, 26] was 1.2 nM.

IMKQAASMK showed a Kd ([14]; source organism: Giardia lamblia ATCC 50803) of 63.5 nM.

IMLKANFSV was tested, and the Kd ([17]; source organism: Influenza A virus (A/Hokkaido/20/89(H3N2))) was 0.3 nM.

For ISRSRRLFA, the Kd [2, 34] was 2.23 nM.

IVRDSMWYI gave a Kd [2, 26] of 19.7 nM.

In the case of IWLKLREVY, the Kd [7, 25] is reported as no less than 76900 nM.

In the case of KAISNARLK, the Kd [2, 34] is reported as 26 nM.

KAKTTISNY showed a Kd [2, 34] of 24.3 nM.

KGGEAQFLV showed a Kd [16] of 738 nM.

KISNTTFEV showed a Kd ([17]; source organism: Vaccinia virus) of 1.9 nM.

With KLTFLDVEV the Kd ([17]; source organism: Variola virus) was 10.1 nM.

KLYSYGIGY was tested, and the Kd [10, 35] was 75.4 nM and the Kd [14, 35] was 1.4 nM.

Sequence KVASEGFQY has a Kd [7, 21] of 28.9 nM.

With LAGFMAYMI the Kd [6, 23] was 2120 nM and the Kd [12, 23] was 7090 nM.

Work on LAYVVIGIL yielded a Kd [12, 25] of 1320 nM.

LEKTHNGKL gave a Kd ([11]; source organism: Influenza A virus (A/RI/5-/1957(H2N2))) of 124 nM.

With LIVILFIMFM the Kd [18, 34] was 433 nM, the Kd [19, 34] was 85.1 nM and the Kd [13, 34] was 120 nM.

In the case of LLFLKDVEP, the Kd [17, 34] is reported as 13.4 nM.

With LLNMRDLIV the Kd [18, 34] was 1.23 nM, the Kd [19, 34] was 665 nM and the Kd [13, 34] was 225 nM.

Sequence LNIALVAVSL has a Kd [18, 36] of 12400 nM, a Kd [19, 36] of 179 nM and a Kd [13, 36] of 13100 nM.

For LNLSGVNNL, the IC50 [4, 24] was no less than 77500 nM.

In the case of LPEEQDQNYV, the Kd [12, 25] is reported as 11900 nM.

In the case of LSFTVVSNG, the IC50 [4, 24] is reported as no less than 325000 nM.

LTKDRKMLEL showed a Kd [18, 34] of 133 nM, a Kd [19, 34] of 7700 nM and a Kd [13, 34] of no less than 20800 nM.

In the case of LTKLFSYGT, the IC50 ([4]; source organism: Variola virus) is reported as 36100 nM.

LTSSSKYTY was tested, and the Kd ([9]; source organism: Amur virus) was 33 nM.

With LVIRNEVNDT the Kd [18, 34] was 15200 nM, the Kd [19, 34] was 5500 nM and the Kd [13, 34] was 2170 nM.

LWPKTHTLW was tested, and the Kd [3, 23] was 44.9 nM.

MAFDISVNA was tested, and the Kd [18, 34] was 15.1 nM, the Kd [19, 34] was 191 nM and the Kd [13, 34] was 13.2 nM.

MLKLFTHDIM showed a Kd [18, 34] of 93.1 nM, a Kd [19, 34] of 84.6 nM and a Kd [13, 34] of no less than 20300 nM.

MPGTRKVMEI gave a Kd [6, 37] of 76.4 nM and a Kd [12, 37] of 1100 nM.

Work on MVEYLENQL yielded a Kd [18, 34] of 6460 nM, a Kd [19, 34] of 343 nM and a Kd [13, 34] of 3960 nM.

MVPLHIPEG gave an IC50 [4, 29] of 38200 nM.

In the case of NIKISLNEIL, the Kd [18, 34] is reported as 1390 nM, the Kd [19, 34] is reported as 705 nM and the Kd [13, 34] is reported as 557 nM.
